# According to patent US20240287172A1 (SCIRHOM, published 2024):
# T1: hiR2-FL-N503A-T7 (human, UniProt Q6PJF5 1-856)
# T1 sequence: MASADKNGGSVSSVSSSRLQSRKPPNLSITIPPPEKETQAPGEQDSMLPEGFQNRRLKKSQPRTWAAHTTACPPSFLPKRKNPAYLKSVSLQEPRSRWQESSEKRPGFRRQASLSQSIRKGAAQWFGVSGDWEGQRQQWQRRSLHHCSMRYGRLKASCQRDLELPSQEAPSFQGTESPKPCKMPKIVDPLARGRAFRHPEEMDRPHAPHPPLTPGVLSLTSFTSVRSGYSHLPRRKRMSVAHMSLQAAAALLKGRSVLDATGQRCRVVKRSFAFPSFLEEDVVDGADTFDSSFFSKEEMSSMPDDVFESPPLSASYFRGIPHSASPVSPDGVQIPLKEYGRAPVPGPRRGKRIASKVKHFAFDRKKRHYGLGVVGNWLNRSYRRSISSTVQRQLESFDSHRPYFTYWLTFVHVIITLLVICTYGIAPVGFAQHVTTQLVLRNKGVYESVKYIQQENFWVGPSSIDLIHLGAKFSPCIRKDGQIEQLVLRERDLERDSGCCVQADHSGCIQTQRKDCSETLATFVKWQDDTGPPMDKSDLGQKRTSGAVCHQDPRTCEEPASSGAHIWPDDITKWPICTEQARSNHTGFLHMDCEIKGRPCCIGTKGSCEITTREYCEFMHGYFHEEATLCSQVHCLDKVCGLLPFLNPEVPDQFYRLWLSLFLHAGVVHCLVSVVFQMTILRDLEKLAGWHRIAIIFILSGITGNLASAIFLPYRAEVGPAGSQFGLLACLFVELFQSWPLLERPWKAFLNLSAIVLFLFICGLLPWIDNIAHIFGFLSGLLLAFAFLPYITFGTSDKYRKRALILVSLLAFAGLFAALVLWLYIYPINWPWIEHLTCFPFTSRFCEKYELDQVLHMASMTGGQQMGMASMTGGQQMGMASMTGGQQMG
# T2: hiR2-FL-L589A-T7 (human, UniProt Q6PJF5 1-856)
# T2 sequence: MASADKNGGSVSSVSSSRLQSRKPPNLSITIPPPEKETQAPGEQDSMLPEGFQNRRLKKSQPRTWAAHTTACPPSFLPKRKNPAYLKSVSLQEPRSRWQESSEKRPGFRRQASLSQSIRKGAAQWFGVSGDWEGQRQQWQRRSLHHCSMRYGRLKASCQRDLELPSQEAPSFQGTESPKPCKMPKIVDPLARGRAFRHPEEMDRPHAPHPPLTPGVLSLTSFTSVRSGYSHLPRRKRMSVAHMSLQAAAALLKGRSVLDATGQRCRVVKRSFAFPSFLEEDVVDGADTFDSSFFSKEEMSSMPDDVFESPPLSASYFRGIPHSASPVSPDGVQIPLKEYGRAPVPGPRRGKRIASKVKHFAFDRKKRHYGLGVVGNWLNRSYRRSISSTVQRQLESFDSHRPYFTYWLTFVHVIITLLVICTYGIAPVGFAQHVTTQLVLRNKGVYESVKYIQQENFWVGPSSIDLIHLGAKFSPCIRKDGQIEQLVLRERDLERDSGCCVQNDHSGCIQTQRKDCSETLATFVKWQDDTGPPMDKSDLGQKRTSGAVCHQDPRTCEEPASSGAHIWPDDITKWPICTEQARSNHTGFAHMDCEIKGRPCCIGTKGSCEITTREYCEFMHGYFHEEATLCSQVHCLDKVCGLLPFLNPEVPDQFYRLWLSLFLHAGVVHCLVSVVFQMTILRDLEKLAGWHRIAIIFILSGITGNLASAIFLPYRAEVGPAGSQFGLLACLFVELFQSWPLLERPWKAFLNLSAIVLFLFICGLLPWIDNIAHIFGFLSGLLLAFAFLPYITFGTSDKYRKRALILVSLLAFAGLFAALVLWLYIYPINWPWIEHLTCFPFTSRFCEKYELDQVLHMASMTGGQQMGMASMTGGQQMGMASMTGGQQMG
# Assays:
# hiR2-FL-N503A-T7 = biological target: T1, hiR2-FL-N503A-T7; test: FACS on MEF-DKO cells expressing the variant, 3 µg/ml antibody
# Procedure, shortened: (§1)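 Cells stained with purified antibody at 3 μg/ml for 1 h on ice, then with PE-conjugated goat anti-mouse IgG F(ab′)2 (1:100) for 1 h on ice in the dark. Binding read by flow cytometry; buffer-only staining as control.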
# hiR2-FL-L589A-T7 = biological target: T2, hiR2-FL-L589A-T7; test: as above
# Procedure, shortened: as §1
Binder,loss of binding vs wild type (hiR2-FL-N503A-T7) [%],loss of binding vs wild type (hiR2-FL-L589A-T7) [%]
"antibody 48 (antibody, V domains shown, mouse IgG, kappa light chain; also called clone #48; purified antibody 48) VH: QVQLQQSGTELVRPGTSVKVSCKASGYAFTNYLIEWVKQRPGQGLEWIGVINPGSGFTKYNEKFKGKATLTADKSSSTVYMHLSSLTSEDSAVYFCARGLYRAMDYWGQGTSVTVSS VL: DIQMTQSPASQSASLGESVTITCLASQTIATWLAWYQQKPGKSPQLLIYGATTLADGVPSRFSGGGSGTKFSFKISSLQAEDFVSYYCQQLYSTPYTFGGGTKLEIK",≥ 30,≥ 60
"antibody 50 (antibody, V domains shown, mouse IgG, kappa light chain; also called clone #50; purified antibody 50) VH: QVQLQQSGAELVRPGASVKVSCKASGYAFSNYLIEWVKQRPGQGLEWIGVINPGSGFTKYNEKFKGKATLTADKSSSTAYMQLSSLTSEDSAVYFCARGLYRAMDYWGQGTSVTVSS VL: DIQMTQSPASQSASLGESVTITCLASQTIGTWLAWYQQKPGKSPQLLIYAAASLADGVPSRFSGGGSGTKFSFKISSLQAEDFVNYYCQQIYSTPYTFGGGTKLEIK",≥ 30,≥ 60
